# Laboratory results published in patent US20090068637A1 (published 2009).
# T1: fusion protein HBc-D123 (HBV)
# T1 chain: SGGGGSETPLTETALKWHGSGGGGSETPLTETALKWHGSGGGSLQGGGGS
# T2: fusion protein HBc-D125 (HBV)
# T2 chain: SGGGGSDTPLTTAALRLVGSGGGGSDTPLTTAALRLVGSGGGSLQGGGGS
# T3: fusion protein HBc-122 (HBV)
# T3 chain: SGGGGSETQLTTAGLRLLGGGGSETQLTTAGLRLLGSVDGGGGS
# T4: fusion protein HBc-124 (HBV)
# T4 chain: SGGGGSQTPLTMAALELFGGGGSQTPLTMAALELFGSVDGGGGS
# T5: fusion protein HBc-128 (HBV)
# T5 chain: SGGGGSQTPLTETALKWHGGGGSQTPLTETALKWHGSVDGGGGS
# B1: monoclonal antibody 8H5 (antibody, V domains shown)
# VH: QVQLQQSGAELMKPGASVKISCKATGYTFSNYWIEWIKQRPGHGLEWIGEILPGSDRTNYNGKFKGKATFTADTSSNTAHMQLSSLTSEDSAVYYCANRYDGYYFGLDYWGQGTSVAVSS
# VL: EIVLTQSPAIMSASLGEKVTMSCRASSSVNFVYWYQQRSDASPKLLIYYSSNLAPGVPPRFSGSGSGNSYSLTISGLEGEDAATYYCQHFTSSPYTFGGGTNLEIKR
# B2: monoclonal antibody 2F2 (antibody, V domains shown)
# VH: QVQLKESGPGLVAPSQRLSITCTVSGFSLTGYGVHWIRQSPGKGLEWLGMIWAEGRTDYNSVLKSRLSINKDNSRSQVFLEMNSLQTDDTARYYCAREVITTEAWYFDVWGQGTSVTES
# VL: DIVMTQSPATLSVTPGDRVSLSCRASQSISDYLYWYQQKSHESPRLLIKYASQSISGIPSRFSGSGSGSDFTLTINSVEPEDVGMYYCQNGHTFPLTFGAGTKLEIKR
# Assays:
# [1] = target: T6, HA of H5N1 virus strain MB1 (avian influenza virus H5N1); assay: cell-based or functional assay
# [2] = target: T7, HA of H5N1 virus strain MB2 (avian influenza virus H5N1); assay: cell-based or functional assay
# [3] = target: T8, HA of H5N1 virus strain MIX1 (avian influenza virus H5N1); assay: cell-based or functional assay
# [4] = target: T9, HA of H5N1 virus strain MIX2 (avian influenza virus H5N1); assay: cell-based or functional assay
# [5] = target: T10, HA of H5N1 virus strain MIX3 (avian influenza virus H5N1); assay: cell-based or functional assay
# [6] = target: T11, HA of H5N1 virus strain GD1 (avian influenza virus H5N1); assay: cell-based or functional assay
# [7] = target: T12, HA of H5N1 virus strain GD2 (avian influenza virus H5N1); assay: cell-based or functional assay
# [8] = target: T13, HA of H5N1 virus strain GD3 (avian influenza virus H5N1); assay: cell-based or functional assay
# [9] = target: T14, HA of H5N1 virus strain YN1 (avian influenza virus H5N1); assay: cell-based or functional assay
# [10] = target: T15, HA of H5N1 virus strain HN1 (avian influenza virus H5N1); assay: cell-based or functional assay
# [11] = target: T16, HA of H5N1 virus strain HN2 (avian influenza virus H5N1); assay: cell-based or functional assay
# [12] = target: T17, HA of H5N1 virus strain IDN1.1 (avian influenza virus H5N1); assay: cell-based or functional assay
# [13] = target: T18, HA of H5N1 virus strain IDN2 (avian influenza virus H5N1); assay: cell-based or functional assay
# [14] = target: T19, HA of H5N1 virus strain IDN3 (avian influenza virus H5N1); assay: cell-based or functional assay
# [15] = target: T20, HA of H5N1 virus strain IDN4 (avian influenza virus H5N1); assay: cell-based or functional assay
# [16] = target: T21, HA of H5N1 virus strain IDN5 (avian influenza virus H5N1); assay: cell-based or functional assay
# [17] = target: T22, HA of H5N1 virus strain VTM1.1 (avian influenza virus H5N1); assay: cell-based or functional assay
# [18] = target: T23, HA of H5N1 virus strain VTM2 (avian influenza virus H5N1); assay: cell-based or functional assay
# [19] = target: T24, HA of H5N1 virus strain VTM3 (avian influenza virus H5N1); assay: cell-based or functional assay
# [20] = target: T25, HA of H5N1 virus strain VTM4 (avian influenza virus H5N1); assay: cell-based or functional assay
# [21] = target: T26, HA of H5N1 virus strain VNM2.1 (avian influenza virus H5N1); assay: cell-based or functional assay
# [22] = target: T6, HA of H5N1 virus strain MB1; assay: cell-based or functional assay; remark: listed apart in the source
# [23] = target: T7, HA of H5N1 virus strain MB2; assay: cell-based or functional assay; remark: listed apart in the source
# [24] = target: T8, HA of H5N1 virus strain MIX1; assay: cell-based or functional assay; remark: listed apart in the source
# [25] = target: T9, HA of H5N1 virus strain MIX2; assay: cell-based or functional assay; remark: listed apart in the source
# [26] = target: T10, HA of H5N1 virus strain MIX3; assay: cell-based or functional assay; remark: listed apart in the source
# [27] = target: T11, HA of H5N1 virus strain GD1; assay: cell-based or functional assay; remark: listed apart in the source
# [28] = target: T12, HA of H5N1 virus strain GD2; assay: cell-based or functional assay; remark: listed apart in the source
# [29] = target: T13, HA of H5N1 virus strain GD3; assay: cell-based or functional assay; remark: listed apart in the source
# [30] = target: T14, HA of H5N1 virus strain YN1; assay: cell-based or functional assay; remark: listed apart in the source
# [31] = target: T15, HA of H5N1 virus strain HN1; assay: cell-based or functional assay; remark: listed apart in the source
# [32] = target: T16, HA of H5N1 virus strain HN2; assay: cell-based or functional assay; remark: listed apart in the source
# [33] = target: T17, HA of H5N1 virus strain IDN1.1; assay: cell-based or functional assay; remark: listed apart in the source
# [34] = target: T18, HA of H5N1 virus strain IDN2; assay: cell-based or functional assay; remark: listed apart in the source
# [35] = target: T19, HA of H5N1 virus strain IDN3; assay: cell-based or functional assay; remark: listed apart in the source
# [36] = target: T20, HA of H5N1 virus strain IDN4; assay: cell-based or functional assay; remark: listed apart in the source
# [37] = target: T21, HA of H5N1 virus strain IDN5; assay: cell-based or functional assay; remark: listed apart in the source
# [38] = target: T22, HA of H5N1 virus strain VTM1.1; assay: cell-based or functional assay; remark: listed apart in the source
# [39] = target: T23, HA of H5N1 virus strain VTM2; assay: cell-based or functional assay; remark: listed apart in the source
# [40] = target: T24, HA of H5N1 virus strain VTM3; assay: cell-based or functional assay; remark: listed apart in the source
# [41] = target: T25, HA of H5N1 virus strain VTM4; assay: cell-based or functional assay; remark: listed apart in the source
# [42] = target: T26, HA of H5N1 virus strain VNM2.1; assay: cell-based or functional assay; remark: listed apart in the source
# fusion protein HBc-D123 = target: T1, fusion protein HBc-D123; assay: ELISA, fusion protein coated at 10 ug/ml
# fusion protein HBc-D125 = target: T2, fusion protein HBc-D125; assay: ELISA, fusion protein coated at 10 ug/ml
# fusion protein HBc-122 = target: T3, fusion protein HBc-122; assay: indirect ELISA, fusion protein coated at 10 ug/ml, 12 mAb tested
# fusion protein HBc-124 = target: T4, fusion protein HBc-124; assay: as above
# fusion protein HBc-128 = target: T5, fusion protein HBc-128; assay: as above
binder,measurement,setting,value
B1,HI titer,[1],3200 titer
same,HI titer,[2],6400 titer
same,HI titer,[3],12800 titer
same,HI titer,[4],6400 titer
same,HI titer,[5],12800 titer
same,HI titer,[6],12800 titer
same,HI titer,[7],12800 titer
same,HI titer,[8],12800 titer
same,HI titer,[9],3200 titer
same,HI titer,[10],12800 titer
same,HI titer,[11],3200 titer
same,HI titer,[12],12800 titer
same,HI titer,[13],1600 titer
same,HI titer,[14],3200 titer
same,HI titer,[15],12800 titer
same,HI titer,[16],6400 titer
same,HI titer,[17],12800 titer
same,HI titer,[18],6400 titer
same,HI titer,[19],6400 titer
same,HI titer,[20],1600 titer
same,HI titer,[21],6400 titer
same,Neutralization titer,[22],6400 titer
same,Neutralization titer,[23],12800 titer
same,Neutralization titer,[24],12800 titer
same,Neutralization titer,[25],6400 titer
same,Neutralization titer,[26],12800 titer
same,Neutralization titer,[27],12800 titer
same,Neutralization titer,[28],12800 titer
same,Neutralization titer,[29],12800 titer
same,Neutralization titer,[30],6400 titer
same,Neutralization titer,[31],12800 titer
same,Neutralization titer,[32],6400 titer
same,Neutralization titer,[33],12800 titer
same,Neutralization titer,[34],6400 titer
same,Neutralization titer,[35],12800 titer
same,Neutralization titer,[36],12800 titer
same,Neutralization titer,[37],6400 titer
same,Neutralization titer,[38],1600 titer
same,Neutralization titer,[39],800 titer
same,Neutralization titer,[40],12800 titer
same,Neutralization titer,[41],1600 titer
same,Neutralization titer,[42],3200 titer
same,binding result,fusion protein HBc-D123,binds
same,binding result,fusion protein HBc-D125,binds
same,binding result,fusion protein HBc-122,binds
same,binding result,fusion protein HBc-124,binds
same,binding result,fusion protein HBc-128,binds
B2,HI titer,[1],< 100 titer
same,HI titer,[2],6400 titer
same,HI titer,[3],< 100 titer
same,HI titer,[4],< 100 titer
same,HI titer,[5],12800 titer
same,HI titer,[6],12800 titer
same,HI titer,[7],12800 titer
same,HI titer,[8],12800 titer
same,HI titer,[9],800 titer
same,HI titer,[10],6400 titer
same,HI titer,[11],1600 titer
same,HI titer,[12],12800 titer
same,HI titer,[13],800 titer
same,HI titer,[14],1600 titer
same,HI titer,[15],12800 titer
same,HI titer,[16],12800 titer
same,HI titer,[17],12800 titer
same,HI titer,[18],3200 titer
same,HI titer,[19],12800 titer
same,HI titer,[20],6400 titer
same,HI titer,[21],200 titer
same,Neutralization titer,[23],12800 titer
same,Neutralization titer,[24],100 titer
same,Neutralization titer,[25],100 titer
same,Neutralization titer,[26],12800 titer
same,Neutralization titer,[27],12800 titer
same,Neutralization titer,[28],12800 titer
same,Neutralization titer,[29],12800 titer
same,Neutralization titer,[31],12800 titer
same,Neutralization titer,[32],12800 titer
same,Neutralization titer,[33],12800 titer
same,Neutralization titer,[34],12800 titer
same,Neutralization titer,[36],12800 titer
same,Neutralization titer,[37],12800 titer
same,Neutralization titer,[38],1600 titer
same,Neutralization titer,[39],12800 titer
same,Neutralization titer,[40],12800 titer
same,Neutralization titer,[41],12800 titer
same,Neutralization titer,[42],12800 titer
